Assay results: patent US20050282739A1 (PALATIN TECHNOLOGIES, published 2005)
Square brackets hold non-standard residues; d marks the D form. Ends that are not written are not given here. Nle = CCCC[C@H](N)C(=O)O

B1: α-MSH parent polypeptide Ac-Ser-Tyr-Ser-Met-Glu-His-Phe-Arg-Trp-Gly-Lys-Pro-Val-NH2 (peptide)
peptide: Ac-SYSMEHFRWGKPV-NH2
notes: not complexed to Re; also called α-MSH analog
B2: metallopeptide 4-5 (peptide)
peptide: YV[Nle]GHFRCWDRF-NH2
modifications: also: oxorhenium(V) N3S1 chelate: C8 SG + backbone N of F6, R7, C8, bridge at 8 via Re(V)=O, other end not in the chain
B3: metallopeptide 2-1 (peptide)
peptide: SYSXEHFRWGKGVC
modifications: N-terminal acetyl; Nle 4 (X in letters); D-Cys 14; C-terminal amide; Re complexed at D-Cys 14
B4: metallopeptide 4-10 (peptide)
peptide: YVC[Nle]GHFRWDRF-NH2
modifications: bridge (positions not given here); not fully specified (bridges); printed as Tyr-Val-Cys-Nle-Gly-His-Phe-Arg-Trp-Asp-Arg-Phe-NH2.; also: oxorhenium(V) N3S1 complex
B5: metallopeptide 4-8 (peptide)
peptide: YV[Nle]GCHFRWDRF-NH2
modifications: also: oxorhenium(V) N3S1 chelate: C5 SG + backbone N of X3, G4, C5, bridge at 5 via Re(V)=O, other end not in the chain

The binders below were run against T1, melanocortin-1 receptor (MC1-R) of B-16 mouse melanoma cells (mouse, UniProt Q01727 1-315) (assay: 125I-NDP-α-MSH competition, B-16 membranes).
T1 construct: whole, on cells; membranes prepared from the cells were used; also called Melanocortin Receptor 1
T1 sequence (Q01727 whole entry): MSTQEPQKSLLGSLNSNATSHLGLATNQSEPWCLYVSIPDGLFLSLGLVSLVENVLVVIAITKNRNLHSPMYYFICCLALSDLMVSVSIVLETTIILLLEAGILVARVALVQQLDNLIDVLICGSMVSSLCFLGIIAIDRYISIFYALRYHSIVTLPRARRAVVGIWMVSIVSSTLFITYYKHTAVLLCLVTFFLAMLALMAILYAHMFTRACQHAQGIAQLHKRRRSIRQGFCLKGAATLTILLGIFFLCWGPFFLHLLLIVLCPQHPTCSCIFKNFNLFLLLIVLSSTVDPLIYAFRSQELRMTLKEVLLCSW
Protocol: (§1) The competitive inhibition binding assay was conducted using membranes prepared from hMC3-R, hMC4-R, hMC5-R, and B-16 mouse melanoma cells (containing MC1-R) using 0.4 nM ¹²⁵I-NDP-alpha-MSH (New England Nuclear, Boston, Mass., USA) in 50 mM HEPES buffer containing 1 mM MgCl₂, 2 mM CaCl₂, and 5 mM KCl, at pH 7.2. […] Incubation was for 90 minutes at room temperature, after which the assay mixture was filtered and the membranes washed three times with ice cold buffer. The filter was dried and counted in a gamma counter for remaining radioactivity bound to the membranes. 100% specific binding was defined as the difference in radioactivity (cpm) bound to cell membranes in the absence and presence of 1 μM α-MSH. […] Each assay was conducted in triplicate and the actual mean valves are described.
With Ac-SYS[Nle]EHCFRWGKPV-NH2 (also: oxorhenium(V) N3S1 chelate at Cys7) [metallopeptide 1-8] the “% Inhibition at 1 µM” value was 42%. In the case of Ac-SYS[Nle]EHFRWGCKPV-NH2 (also: oxorhenium(V) N3S1 chelate at Cys11) [metallopeptide 1-4], the “% Inhibition at 1 µM” value is reported as 72%. In the case of B1, the “% Inhibition at 1 µM” value is reported as 99%.

Biological target: T1, melanocortin-1 receptor (MC1-R) of B-16 …
Assay: 125I-NDP-α-MSH competition, B-16 membranes
Remark: another data set of the same source
Protocol: as §1
(§2) The methods and assays set forth in Example 1 were followed.
With Ac-SYS[Nle]EH[dC]FRWGKPV-NH2 (also: oxorhenium(V) N3S1 chelate at D-Cys 7) [metallopeptide 2-8] the “% Inhibition at 1 µM” value was 69%. YVXGHFRWDRFC (not fully specified; Nle 3; C-terminal amide; Re complexed at Cys 12) [metallopeptide 4-1] was tested, and the “% Inhibition at 1 µM” value was 56%. For B2, the “% Inhibition at 1 µM” value was 89%. B3 was tested, and the “% Inhibition at 1 µM” value was 97%. With Ac-SYS[Nle][dC]EHFRWGKPV-NH2 (also: oxorhenium(V) N3S1 chelate at D-Cys5) [metallopeptide 2-10] the “% Inhibition at 1 µM” value was 65%. With Ac-SYS[dC][Nle]EHFRWGKPV-NH2 (also: oxorhenium(V) N3S1 chelate at D-Cys4) [metallopeptide 2-11] the “% Inhibition at 1 µM” value was 95%. For Ac-SYS[Nle]EHF[dC]RWGKPV-NH2 (also: oxorhenium(V) N3S1 chelate at D-Cys8) [metallopeptide 2-7], the “% Inhibition at 1 µM” value was 54%. Ac-SYS[Nle]EHFRWGKG[dC]V-NH2 (also: oxorhenium(V) N3S1 chelate at D-Cys13) [metallopeptide 2-2] was tested, and the “% Inhibition at 1 µM” value was 93%. In the case of B4, the “% Inhibition at 1 µM” value is reported as 28%. In the case of B5, the “% Inhibition at 1 µM” value is reported as 13%. In the case of B1, the “% Inhibition at 1 µM” value is reported as 99%.

The binders below were run against T2, human melanocortin-3 receptor (hMC3-R) (human, UniProt P41968 1-323) (assay: 125I-NDP-α-MSH competition, hMC3-R membranes).
T2 construct: whole, on cells; membranes prepared from hMC3-R cells were used; also called Melanocortin Receptor 3
T2 sequence (P41968 whole entry): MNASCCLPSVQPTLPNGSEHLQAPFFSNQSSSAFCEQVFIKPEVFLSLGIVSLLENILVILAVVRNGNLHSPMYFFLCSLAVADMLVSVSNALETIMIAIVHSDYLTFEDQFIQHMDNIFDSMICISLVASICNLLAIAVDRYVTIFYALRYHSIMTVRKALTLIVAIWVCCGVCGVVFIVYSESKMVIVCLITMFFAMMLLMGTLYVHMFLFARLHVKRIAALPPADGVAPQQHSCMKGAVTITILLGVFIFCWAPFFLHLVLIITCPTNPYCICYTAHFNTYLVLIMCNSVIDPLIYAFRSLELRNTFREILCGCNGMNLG
Protocol: as §1
With Ac-SYS[Nle]EHCFRWGKPV-NH2 (also: oxorhenium(V) N3S1 chelate at Cys7) [metallopeptide 1-8] the “% Inhibition at 1 µM” value was 0%. In the case of Ac-SYS[Nle]EHFRWGCKPV-NH2 (also: oxorhenium(V) N3S1 chelate at Cys11) [metallopeptide 1-4], the “% Inhibition at 1 µM” value is reported as 0%.

Each binder was assayed against T3, human melanocortin-4 receptor (hMC4-R) (human, UniProt P32245 1-332) (assay: 125I-NDP-α-MSH competition, hMC4-R membranes).
T3 construct: whole, on cells; membranes prepared from hMC4-R cells were used; also called Melanocortin Receptor 4
T3 sequence (P32245 whole entry): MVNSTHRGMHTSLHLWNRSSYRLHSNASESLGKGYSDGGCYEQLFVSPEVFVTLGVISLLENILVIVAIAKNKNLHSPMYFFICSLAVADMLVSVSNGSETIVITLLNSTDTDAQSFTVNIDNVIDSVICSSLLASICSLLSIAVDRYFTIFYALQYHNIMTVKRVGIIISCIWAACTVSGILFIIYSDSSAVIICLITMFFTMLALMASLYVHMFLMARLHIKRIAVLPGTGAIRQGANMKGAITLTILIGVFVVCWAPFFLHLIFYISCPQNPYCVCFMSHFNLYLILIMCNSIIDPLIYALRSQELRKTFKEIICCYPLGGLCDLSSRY
Protocol: as §1
Ac-SYS[Nle]EHCFRWGKPV-NH2 (also: oxorhenium(V) N3S1 chelate at Cys7) [metallopeptide 1-8] was tested, and the “% Inhibition at 1 µM” value was 0%. For Ac-SYS[Nle]EHFRWGCKPV-NH2 (also: oxorhenium(V) N3S1 chelate at Cys11) [metallopeptide 1-4], the “% Inhibition at 1 µM” value was 0%.

Biological target: T2, human melanocortin-3 receptor (hMC3-R)
Assay: 125I-NDP-α-MSH competition, hMC3-R membranes
Remark: another data set of the same source
Protocol: as §1, §2
For Ac-SYS[Nle]EH[dC]FRWGKPV-NH2 (also: oxorhenium(V) N3S1 chelate at D-Cys 7) [metallopeptide 2-8], the “% Inhibition at 1 µM” value was 0%. In the case of YVXGHFRWDRFC (not fully specified; Nle 3; C-terminal amide; Re complexed at Cys 12) [metallopeptide 4-1], the “% Inhibition at 1 µM” value is reported as 69%. In the case of B2, the “% Inhibition at 1 µM” value is reported as 87%. With B3 the “% Inhibition at 1 µM” value was 72%. With Ac-SYS[Nle][dC]EHFRWGKPV-NH2 (also: oxorhenium(V) N3S1 chelate at D-Cys5) [metallopeptide 2-10] the “% Inhibition at 1 µM” value was 0%. In the case of Ac-SYS[Nle]EHF[dC]RWGKPV-NH2 (also: oxorhenium(V) N3S1 chelate at D-Cys8) [metallopeptide 2-7], the “% Inhibition at 1 µM” value is reported as 0%. For Ac-SYS[Nle]EHFRWGKG[dC]V-NH2 (also: oxorhenium(V) N3S1 chelate at D-Cys13) [metallopeptide 2-2], the “% Inhibition at 1 µM” value was 26%. With B4 the “% Inhibition at 1 µM” value was 10%. B5 was tested, and the “% Inhibition at 1 µM” value was 33%.

Biological target: T3, human melanocortin-4 receptor (hMC4-R)
Assay: 125I-NDP-α-MSH competition, hMC4-R membranes
Remark: another data set of the same source
Protocol: as §1, §2
For Ac-SYS[Nle]EH[dC]FRWGKPV-NH2 (also: oxorhenium(V) N3S1 chelate at D-Cys 7) [metallopeptide 2-8], the “% Inhibition at 1 µM” value was 25%. For YVXGHFRWDRFC (not fully specified; Nle 3; C-terminal amide; Re complexed at Cys 12) [metallopeptide 4-1], the “% Inhibition at 1 µM” value was 36%. With B2 the “% Inhibition at 1 µM” value was 74%. B3 was tested, and the “% Inhibition at 1 µM” value was 46%. With Ac-SYS[Nle][dC]EHFRWGKPV-NH2 (also: oxorhenium(V) N3S1 chelate at D-Cys5) [metallopeptide 2-10] the “% Inhibition at 1 µM” value was 18%. Ac-SYS[dC][Nle]EHFRWGKPV-NH2 (also: oxorhenium(V) N3S1 chelate at D-Cys4) [metallopeptide 2-11] was tested, and the “% Inhibition at 1 µM” value was 37%. With Ac-SYS[Nle]EHF[dC]RWGKPV-NH2 (also: oxorhenium(V) N3S1 chelate at D-Cys8) [metallopeptide 2-7] the “% Inhibition at 1 µM” value was 6%. Ac-SYS[Nle]EHFRWGKG[dC]V-NH2 (also: oxorhenium(V) N3S1 chelate at D-Cys13) [metallopeptide 2-2] was tested, and the “% Inhibition at 1 µM” value was 28%.

The binders below were run against T4, human melanocortin-5 receptor (hMC5-R) (human, UniProt P33032 1-325) (assay: 125I-NDP-α-MSH competition, hMC5-R membranes).
T4 construct: whole, on cells; membranes prepared from hMC5-R cells were used; also called Melanocortin Receptor 5
T4 sequence (P33032 whole entry): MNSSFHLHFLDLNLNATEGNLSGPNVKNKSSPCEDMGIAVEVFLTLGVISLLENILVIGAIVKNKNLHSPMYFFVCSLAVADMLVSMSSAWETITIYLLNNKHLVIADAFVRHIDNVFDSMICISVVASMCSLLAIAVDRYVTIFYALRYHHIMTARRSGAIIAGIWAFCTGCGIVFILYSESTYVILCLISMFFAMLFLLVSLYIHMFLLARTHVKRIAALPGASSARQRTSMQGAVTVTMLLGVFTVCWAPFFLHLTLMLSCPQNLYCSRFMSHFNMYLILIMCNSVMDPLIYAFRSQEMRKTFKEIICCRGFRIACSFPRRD
Protocol: as §1, §2
In the case of Ac-SYS[Nle]EH[dC]FRWGKPV-NH2 (also: oxorhenium(V) N3S1 chelate at D-Cys 7) [metallopeptide 2-8], the “% Inhibition at 1 µM” value is reported as 29%. In the case of YVXGHFRWDRFC (not fully specified; Nle 3; C-terminal amide; Re complexed at Cys 12) [metallopeptide 4-1], the “% Inhibition at 1 µM” value is reported as 41%. With B2 the “% Inhibition at 1 µM” value was 68%. For B3, the “% Inhibition at 1 µM” value was 53%. Ac-SYS[Nle][dC]EHFRWGKPV-NH2 (also: oxorhenium(V) N3S1 chelate at D-Cys5) [metallopeptide 2-10] was tested, and the “% Inhibition at 1 µM” value was 0%. For Ac-SYS[dC][Nle]EHFRWGKPV-NH2 (also: oxorhenium(V) N3S1 chelate at D-Cys4) [metallopeptide 2-11], the “% Inhibition at 1 µM” value was 0%. For Ac-SYS[Nle]EHF[dC]RWGKPV-NH2 (also: oxorhenium(V) N3S1 chelate at D-Cys8) [metallopeptide 2-7], the “% Inhibition at 1 µM” value was 0%. With Ac-SYS[Nle]EHFRWGKG[dC]V-NH2 (also: oxorhenium(V) N3S1 chelate at D-Cys13) [metallopeptide 2-2] the “% Inhibition at 1 µM” value was 32%. B4 was tested, and the “% Inhibition at 1 µM” value was 17%. For B5, the “% Inhibition at 1 µM” value was 45%.
